According to patent US8936806B2, “Periostin induces proliferation of cardiomyocytes and promotes cardiac regeneration” (Children's Medical Center Corporation, priority 2007, dated 2015):

How the values were obtained:
[1] = Diffusion range and presence of recombinant periostin in myocardium after epicardial Gelfoam patch; type: in vivo, rat; settings: after 12 weeks
Description: To develop a long-term delivery system for recombinant periostin, we determined if recombinant periostin associated with Gelfoam, a biodegradable biological scaffold. Gelfoam patches (Pfizer, New York, N.Y.) of 1 cm^2 diameter were loaded with 100 μg of recombinant human periostin and incubated with 1 mL of PBS at 37° C. with continuous agitation for 10 weeks. The supernatant was replaced every 2 weeks and the concentration of recombinant periostin in the supernatant was determined by Western blot using a polyclonal antibody directed against human periostin (Abeam). The diffusion range of recombinant periostin in myocardium was determined with a polyclonal antibody directed against human periostin followed by immunofluorescence microscopy. Presence of periostin in the myocardium was determined by Western blot using a polyclonal antibody directed against human periostin (Abeam).
Adult male Sprague-Dawley rats (300 gm, Charles River Laboratories) underwent experimental myocardial infarction as described (del Monte, F. et al. Abrogation of ventricular arrhythmias in a model of ischemia and reperfusion by targeting myocardial calcium cycling. Proc Natl Acad Sci USA 101, 5622-7 (2004)). The survival rate was 67%. Gelfoam loaded with 100 μg of recombinant periostin or with buffer were applied over the myocardial infarction at the time of surgery. […]

[2] = system: Adult male Sprague-Dawley rats; experiment: Cardiomyocyte cell cycle activity in vivo after intramyocardial injection; parameters: species or system rat; LVFW CM nuclei: unit not given here
Description: Experiments were performed in accordance with institutional guidelines of Massachusetts General Hospital. Injections and analyses were performed in a blinded fashion. Adult male Sprague-Dawley rats (300 gm, Charles River Laboratories) underwent thoracotomy and received intramyocardial injections of 50 μg of recombinant human periostin consisting of the fas1-4 domains, 50 μg of rat fibronectin, or 100 μL of 100 mM sodium acetate as a control (5 rats per group). The survival rate for this procedure was 80%. Injected periostin was confirmed by detection with a polyclonal antibody directed against human periostin (Abcam) and visualized by immunofluorescence microscopy. Intraperitoneal injections of BrdU (70 μmol/kg body weight) with a tissue half life of 2 hr were given every 48 hr, and rats were sacrificed after the third injection. Horizontal cryosections of 14 μm thickness spaced at 1 mm intervals were analyzed by laser scanning immunofluorescence microscopy. BrdU-positive cardiomyocyte nuclei and cytokineses were quantified on 16-20 sections per heart. Fibrosis and cardiomyocyte cross-sectional area were determined on 5 Masson's Trichrome-stained sections at the level of the injection at 40× magnification and quantified using the Metamorph software package (Molecular Devices Corp., Downingtown, Pa.).

[3] = system: Adult male Sprague-Dawley rats; experiment: Rat model of myocardial infarction: echocardiography and catheterization; type: in vivo; settings: for Maximum left ventricular elastance / Maximum rate of left ventricular pressure rise / Preload-recruitable stroke work / Slope of end-systolic pressure-volume relationship: catheterization, 12 weeks
Description: Adult male Sprague-Dawley rats (300 gm, Charles River Laboratories) underwent experimental myocardial infarction as described (del Monte, F. et al. Abrogation of ventricular arrhythmias in a model of ischemia and reperfusion by targeting myocardial calcium cycling. Proc Natl Acad Sci USA 101, 5622-7 (2004)). The survival rate was 67%. Gelfoam loaded with 100 μg of recombinant periostin or with buffer were applied over the myocardial infarction at the time of surgery. Rats received 3 intraperitoneal BrdU injections (70 μmol/kg body weight) with a half-life of 2 hr every 48 hr over a period of 7 days. Echocardiography and hemodynamic catheterization were performed as described (Prunier, F. et al. Am J Physiol Heart Circ Physiol (2006)).

[4] = system: primary adult rat ventricular cardiomyocytes; experiment: Cytokinesis (aurora B kinase) in primary adult rat ventricular cardiomyocytes; type: cell-based
Source text: Primary neonatal rat ventricular cardiomyocytes were isolated using the Neomyts kit (Cellutron, Highland Park, N.J.), seeded at a density of 10^5 cells/cm^2 onto gelatin-coated cover slips, stimulated for 3 days, and labeled with BrdU for the terminal 2 days. Primary adult ventricular cardiomyocytes were isolated from male (300 gm) Wistar rats (Charles River Laboratories) and maintained as described (Engel, F. B. et al. p38 MAP kinase inhibition enables proliferation of adult mammalian cardiomyocytes. Genes Dev 19, 1175-87 (2005)). Adult cardiomyocytes were stimulated daily for 9 days and labeled with 30 μM BrdU for the terminal 3 days. Cardiomyocytes were stimulated with periostin (500 ng/mL) and FGF (100 ng/mL). Inhibiting antibodies were added at a concentration of 10 μg/mL, cRGD at 10 μM, U0126 at 10 μM, PD98059 at 1 μM, LY294002 at 10 μM, and Wortmannin at 0.1 μM 30 min prior to stimulation. The vehicle used to dissolve factors or chemicals was added to unstimulated samples, which were then processed together with the test samples.
DNA-synthesis was analyzed by visualization of BrdU uptake and cytokinesis was determined by detection of the cleavage furrow and the midbody with an antibody against aurora B kinase as described (Engel, F. B. et al. p38 MAP kinase inhibition enables proliferation of adult mammalian cardiomyocytes. Genes Dev 19, 1175-87 (2005)). Signals were visualized with secondary antibodies conjugated to Alexa 488, Alexa 546, Alexa 594, and Alexa 647 (Invitrogen). Nuclei were visualized with 4′,6′-diamidino-2-phenylindole (DAPI, Invitrogen). For image acquisition, the value for γ was set at 1 and the lookup table settings were linear.

[5] = 1 week after intracardiac injection
[6] = 12 weeks after MI, listed as Periostin

B1: periostin: Recombinant periostin, purified from HEK293 cells expressing the full-length human cDNA; secreted protein of 834 amino acids (Seq ID. No. 1) (protein, listed as Homo sapiens)
chain: MIPFLPMFSLLLLLIVNPINANNHYDKILAHSRIRGRDQGPNVCALQQILGTKKKYFSTCKNWYKKSICGQKTTVLYECCPGYMRMEGMKGCPAVLPIDHVYGTLGIVGATTTQRYSDASKLREEIEGKGSFTYFAPSNEAWDNLDSDIRRGLESNVNVELLNALHSHMINKRMLTKDLKNGMIIPSMYNNLGLFINHYPNGVVTVNCARIIHGNQIATNGVVHVIDRVLTQIGTSIQDFIEAEDDLSSFRAAAITSDILEALGRDGHFTLFAPTNEAFEKLPRGVLERFMGDKVASEALMKYHILNTLQCSESIMGGAVFETLEGNTIEIGCDGDSITVNGIKMVNKKDIVTNNGVIHLIDQVLIPDSAKQVIELAGKQQTTFTDLVAQLGLASALRPDGEYTLLAPVNNAFSDDTLSMVQRLLKLILQNHILKVKVGLNELYNGQILETIGGKQLRVFVYRTAVCIENSCMEKGSKQGRNGAIHIFREIIKPAEKSLHEKLKQDKRFSTFLSLLEAADLKELLTQPGDWTLFVPTNDAFKGMTSEEKEILIRDKNALQNIILYHLTPGVFIGKGFEPGVTNILKTTQGSKIFLKEVNDTLLVNELKSKESDIMTTNGVIHVVDKLLYPADTPVGNDQLLEILNKLIKYIQIKFVRGSTFKEIPVTVYTTKIITKVVEPKIKVIEGSLQPIIKTEGPTLTKVKIEGEPEFRLIKEGETITEVIHGEPIIKKYTKIIDGVPVEITEKETREERIITGPEIKYTRISTGGGETEETLKKLLQEEVTKVTKFIEGGDGHLFEDEEIKRLLQGDTPVRKLQANKKVQGSRRRLREGRSQ
presence of periostin in the left ventricle by immunoblotting [1]: confirmed presence | distance from the epicardium to the farthest diffusion range of periostin ([1]; epicardial Gelfoam patch): 461±62 | LVFW BrdU-positive CM nuclei [2, 5]: 0.051 ± 0.0021 % | LVFW CM nuclei [2, 5]: 10.3 ± 0.3 10^$$ per heart | LVFW cytokineses [2, 5]: 0.008±0.002% | LVFW BrdU-positive CM nuclei ([2]; 1 week after intracardiac injection, 3 BrdU injections): 5,322±363 per heart | LVFW BrdU-positive CM nuclei ([2]; 1 week after intracardiac injection, 3 BrdU injections, listed as PN): 5411 ± 376 per heart | LVFW myocardial volume ([2]; 1 week after intracardiac injection, 50 μg periostin (fas1-4 domains) or 50 μg rat fibronectin): 211.3 ± 12.3 mm^3 | LVFW cytokineses ([2]; 1 week after intracardiac injection, listed as Periostin): 821±176 per heart | fibrosis after intramyocardial injection ([2]; FIG. 4a): did not induce | hypertrophy (cardiomyocyte cross-sectional area) after intramyocardial injection ([2]; FIG. 4b): did not induce | H3P-positive binucleated cardiomyocytes ([2]; dispersed isolated cardiomyocytes, in vivo): 0.04±0.01% | DNA synthesis, of cardiomyocyte nuclei in the injected area ([2]; rat, in vivo): 0.7±0.1% | cytokinesis, of cardiomyocyte nuclei in the injected area ([2]; rat, in vivo): 0.1±0.03% | increase of DNA synthesis compared with buffer-injected hearts ([2]; rat, in vivo): 8 fold | increase of cytokinesis compared with buffer-injected hearts ([2]; rat, in vivo): 11.5 fold | Ejection fraction ([3]; 1 week after MI): 53% | End-diastolic dimension ([3]; 1 week after MI): 8.1 ± 0.4 mm | End-systolic dimension ([3]; 1 week after MI): 6.1 ± 0.4 mm | Shortening fraction ([3]; 1 week after MI, periostin Gelfoam 100 μg): 25% | Shortening fraction ([3]; 1 week after MI, periostin Gelfoam 100 μg, listed as Periostin): 25.2 ± 2.1% | Ejection fraction ([3]; 1 week after MI, listed as Periostin): 52.6 ± 2.9% | Ejection fraction ([3]; 12 weeks after MI): 66% | End-diastolic dimension ([3]; 12 weeks after MI): significantly smaller | End-systolic dimension ([3]; 12 weeks after MI): 6 ± 0.5 mm | Shortening fraction ([3]; 12 weeks after MI): 33% | Ejection fraction [3, 6]: 65.9 ± 3.8% | End-diastolic dimension [3, 6]: 8.4 ± 0.2 mm | Shortening fraction [3, 6]: 33.0 ± 2.6% | Maximum left ventricular elastance [3]: higher | Maximum rate of left ventricular pressure rise [3]: higher | Preload-recruitable stroke work [3]: higher | Slope of end-systolic pressure-volume relationship [3]: steeper slope | Maximum left ventricular elastance ([3]; listed as Periostin): 2.5 ± 1 | Maximum rate of left ventricular pressure rise ([3]; listed as Periostin): 4821 ± 513 mm Hg/s | Preload-recruitable stroke work ([3]; listed as Periostin): 68.6 ± 13.9 mm Hg | Slope of end-systolic pressure-volume relationship ([3]; listed as Periostin): 1.4 ± 0.2 mm Hg/μL | cytokinesis, of all differentiated cardiomyocytes ([4]; 9 days stimulation): 0.5±0.2% | BrdU-labeled nuclei in cardiomyocyte cytokineses ([4]; N=15): 100% | first detection of cytokinesis ([4]; time-course of stimulation): ≥ 6 days
